Consider 1 sequence from patent US20200369727A1, “COMPOSITION AND METHOD FOR TREATING A PATIENT HAVING LIVER CIRRHOSIS” (priority 2019, published 2020).

This assay concerns the target T1, NS3 of SEQ ID NO: 3 (HCV NS3 genotype 4a) (Hepatitis C virus genotype 4a, UniProt O39929).
T1 construct: T7 tag (N); 6-His tag (C); made in house; host or cells: E. coli Rosette (DE3) pLysS
Kind of assay: Differential static light scattering (DSLS), aggregation temperature of NS3 with peptide. Format: binding. The settings on record: NS3 of SEQ ID NO: 3 with peptide in 1:2 ratio, room temperature, two hours, shaking. The procedure:
The binding of SEQ ID NO: 4 and its variants of SEQ ID NO: 6-20 to the NS3 of SEQ ID NO: 3 were determined by differential static light scattering method using Stargazer-2™ (Harbinger Biotechnology and Engineering Corporation, Toronto, Canada). The method assesses protein stability by monitoring aggregate formation upon gradual increase of temperatures. NS3 domain of SEQ ID NO: 3 stability upon binding to NS4A of SEQ ID NO: 4 was measured by monitoring denatured protein aggregation upon increasing temperature from 25 to 85° C. in 0.5° C. increments at 600 nm. […] The mixture and control were incubated at room temperature with gentle shaking for specified time. […]. Afterwards, 10 μL of the mixture was transferred into a clear bottom Nunc 384-well plate and covered by 10 μL paraffin oil to minimize evaporation. Protein aggregation was monitored by tracking the change in scattered light that was detected by a CCD camera. Snapshot images of the plate were taken every 0.5° C. The pixel intensities in a preselected region of each well were integrated using image analysis software to generate a value representative of the total amount of scattered light in that region. […] Aggregation was monitored and analyzed to assess the effect of NS4A of SEQ ID NO: 4 and its synthetic analogues of SEQ ID NO: 6-20 on the stability of the NS3 as an indicator of binding. […]

With “KKGSVVIVGRIVLSGKK [SEQ ID NO: 4, reference compound]”, the “ΔTagg (Tagg shift, aggregation temperature)” value was found to be 2.83 °C.
